Test results as given in patent publication US20090061461A1 (published 2009).

B1: HA-tagged mPR mutant S56A/S180A (receptor)
chain: not shown
notes: also called mPR-3HA S56A/S180A; not shown: C-terminal 3xHA tag
B2: HA-tagged mPR mutant S56A (receptor)
chain: not shown
notes: also called mPR-3HA S56A; not shown: C-terminal 3xHA tag
B3: HA-tagged mPR mutant S56A/C128S/S180A (receptor)
chain: not shown
notes: not shown: C-terminal 3xHA tag
B4: HA-tagged mPR mutant S180A (receptor)
chain: not shown
notes: also called mPR-3HA S180A; not shown: C-terminal 3xHA tag

What follows are binders tested against T1, deleted in colorectal cancer (DCC) (human, UniProt P43146 26-1447) (assay: co-immunoprecipitation (anti-HA) from transfected MCF-7 cells, Western blot with anti-DCC AF5).
T1 construct: Endogenous DCC of MCF-7 cells, detected by Western blot in the anti-HA immunoprecipitate; also called DCC/Unc-40
T1 sequence (P43146 26-1447 limits assumed): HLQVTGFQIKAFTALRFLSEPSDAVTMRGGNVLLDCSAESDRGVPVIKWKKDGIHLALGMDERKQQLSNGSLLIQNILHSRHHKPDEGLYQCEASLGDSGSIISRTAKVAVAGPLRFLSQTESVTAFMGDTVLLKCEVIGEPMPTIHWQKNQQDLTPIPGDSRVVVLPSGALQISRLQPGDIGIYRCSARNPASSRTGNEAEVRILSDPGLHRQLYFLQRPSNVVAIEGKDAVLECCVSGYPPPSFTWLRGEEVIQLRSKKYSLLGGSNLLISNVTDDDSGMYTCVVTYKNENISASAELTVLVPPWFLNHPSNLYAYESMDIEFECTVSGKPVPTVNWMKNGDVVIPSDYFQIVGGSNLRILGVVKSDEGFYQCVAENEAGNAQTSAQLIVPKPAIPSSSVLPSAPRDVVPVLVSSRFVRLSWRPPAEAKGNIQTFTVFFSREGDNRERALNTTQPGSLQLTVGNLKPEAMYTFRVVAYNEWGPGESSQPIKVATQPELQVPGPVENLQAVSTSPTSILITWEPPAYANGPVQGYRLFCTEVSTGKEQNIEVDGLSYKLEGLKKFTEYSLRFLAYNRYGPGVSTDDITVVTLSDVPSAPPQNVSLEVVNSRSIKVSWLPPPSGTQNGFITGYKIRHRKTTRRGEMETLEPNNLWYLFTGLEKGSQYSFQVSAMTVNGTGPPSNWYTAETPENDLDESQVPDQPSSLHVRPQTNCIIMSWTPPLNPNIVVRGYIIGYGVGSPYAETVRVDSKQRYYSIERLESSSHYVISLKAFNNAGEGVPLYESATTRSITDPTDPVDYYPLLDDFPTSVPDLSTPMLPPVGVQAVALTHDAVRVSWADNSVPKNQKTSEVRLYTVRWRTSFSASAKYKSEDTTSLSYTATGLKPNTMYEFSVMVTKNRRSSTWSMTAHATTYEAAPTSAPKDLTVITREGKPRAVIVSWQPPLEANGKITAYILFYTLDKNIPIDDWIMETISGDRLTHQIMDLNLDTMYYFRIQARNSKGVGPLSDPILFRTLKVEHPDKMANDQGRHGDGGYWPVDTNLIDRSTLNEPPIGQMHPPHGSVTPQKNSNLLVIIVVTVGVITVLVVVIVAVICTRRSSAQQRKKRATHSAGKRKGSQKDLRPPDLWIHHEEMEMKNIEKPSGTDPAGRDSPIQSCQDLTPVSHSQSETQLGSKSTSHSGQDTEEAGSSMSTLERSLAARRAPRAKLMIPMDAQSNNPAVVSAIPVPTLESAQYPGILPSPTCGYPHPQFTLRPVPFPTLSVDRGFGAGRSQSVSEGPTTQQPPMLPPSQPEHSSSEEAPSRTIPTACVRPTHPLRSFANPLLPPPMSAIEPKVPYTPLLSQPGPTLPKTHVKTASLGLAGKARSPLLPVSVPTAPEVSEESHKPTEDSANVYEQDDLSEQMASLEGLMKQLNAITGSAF
Experimental: MCF-7 breast cancer cells were transfected by Lipofection with 5 μg of pcDNA3.1 containing HA-tagged mPR-wt, tagged mutant S56A, S180A, S56A/S180A, or tagged mutant S56A/C128S/[…]. After transfection of 2×10⁶ cells they were cultured in RPMI-Medium with 5% FCS. For IP the cells were trypsinized, counted and cell pellets were snap frozen and stored at −80° C.
Beads were separated by centrifugation and stored at −80° C. […] Incubation was performed for 16 h at 4° C. in a rotating tube. Then, beads were separated by centrifugation and washed twice with ice cold lysis buffer.
For PAGE gel-loading buffer/mercatoethanol was added to beads and the final supernatant, heated to 95° C. for 5 min and loaded on a 10% polyacrylamide gel. After separation of the proteins, western blot was performed onto nitrocellulose membrane. Transfer was controlled by Ponceau-red staining visualizing protein bands. After destaining the membranes were blocked for 16 h at 4° C. with 5% milkpowder/0.05% Tween. The next day membranes were incubated with mouse monoclonal anti-DCC antibody (1:20) (Biozol/Abcam) for 2 h at RT followed by biotinylated anti-mouse IgG antibody (Vecta Stain). For detection, membranes were incubated with streptavidin/HRP complex (DAKO) for 2 h at RT followed by enhanced chemiluminescence (ECL) treatment and measurement of chemiluminescence using a Lumiimager (Roche). As a loading control, membranes were incubated with rabbit polyclonal Actin I-19 antibody (Santa Cruz).

Binding result, no binding:
B1
B2
B3
B4
